The supplement of paper PMC10567573
± gives the standard deviation.

Experiment: protein stability index of a GFP-peptide fusion (GPS, HEK-293T) (PSI 1-6); higher = more stable
[1] = treatment: DMSO, c terminus: a fixed tail appended
[2] = treatment: MLN4924 1 uM, 8 h, c terminus: a fixed tail appended
[3] = treatment: DMSO, c terminus: native
[4] = treatment: MLN4924 1 uM, 8 h, c terminus: native
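Also: 24-mer peptide tiles fused after GFP, lentivirally expressed, FACS-sorted into six equal bins by GFP/DsRed ratio, decoded by Illumina sequencing, PSI is the read-weighted mean bin number.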

Row | Sequence | protein stability index [1] | protein stability index [2] | protein stability index [3] | protein stability index [4]
1 | VLYPVPLESYEDIHGTLHLERLAY [PRAME] | 2.31 ± 0.23 | 2.38 ± 0.36 |  | 
2 | VNDHLLNFVRERTLDKRWRVRKEA [PDS5B] | 2.74 ± 0.44 | 3.08 ± 0.35 |  | 
3 | VNNTTLTNSTPLRAACFDGHLEIV [FEM1C] | 2.76 ± 0.34 | 2.61 ± 0.38 |  | 
4 | VPVVTPTASTAPPVPATAPSPAPA [SNAP91] | 4.98 ± 0.17 | 5.05 ± 0.11 |  | 
5 | VQRKSDFDQTVFQEVFEPPHYELC [NETO1] | 3.44 ± 0.23 | 3.62 ± 0.3 |  | 
6 | VREIVKECSNIPLSQPQQGEAMLA [GAN] | 4.28 ± 0.37 | 4.31 ± 0.36 |  | 
7 | VRLQSQRPSMASELMPSSRLWSLS [SLC25A39] | 2.64 ± 0.32 | 2.58 ± 0.17 |  | 
8 | VRYSDCCERVVINVSGLRFETQMK [KCNA4] | 2.31 ± 0.46 | 2.33 ± 0.37 |  | 
9 | VSFVERILKSQKERQCALRVFKAR [FBXO39] | 2.35 ± 0.41 | 2.55 ± 0.21 |  | 
10 | VSLHDRIYVIGGYDGRSRLSSVEC [KLHL12] | 1.96 ± 0.16 | 2.19 ± 0.17 |  | 
11 | VSSQRFKSSVYRRYNDFVVFQEML [SNX8] | 2.1 ± 0.21 | 2.21 ± 0.39 |  | 
12 | VTAGCGFGKDFRKGLLKKGACYGD [PPTC7] | 2.79 ± 0.56 | 2.65 ± 0.11 |  | 
13 | VTGLMEATQMMVDIDGDVLVFLEL [RHOBTB2] | 3.31 ± 0.2 | 3.29 ± 0.8 |  | 
14 | VTPEAKDLINKMLTINPAKRITAS [CAMK2D] | 3.29 ± 0.29 | 3.33 ± 0.2 |  | 
15 | VTQREHSSEHVTESVADLLALEEP [SLC6A17] | 5.3 ± 0.47 | 5.12 ± 0.3 |  | 
16 | VVKVLLESGASIEDHNENGHTPLM [ANKRD17] | 3.17 ± 0.25 | 3.25 ± 0.26 |  | 
17 | VVSTSGEQMKVYKCEHCRVLFLDH [IKZF1] | 2.69 ± 0.4 | 2.3 ± 0.64 |  | 
18 | VWDMRSGQCVQAFETHESDINSVR [GNB5] | 3.48 ± 0.24 | 3.56 ± 0.15 |  | 
19 | VYSCAFSPDSSMLCSVGASKAVFL [WSB1] | 2.8 ± 0.5 | 2.86 ± 0.49 |  | 
20 | WAGFMVLLMIPWGSAAKLVCYFTN [CHIT1] | 2.69 ± 0.069 | 2.11 ± 0.13 |  | 
21 | WFESVLEPGYIDSEIGTSDQIVPE [TRIB1] | 4.44 ± 0.2 | 4.09 ± 0.18 |  | 
22 | WGCSCCPPETKHQALSGTPKKGPA [TSPAN10] | 4.13 ± 0.41 | 4.44 ± 0.26 |  | 
23 | WKSHLKKVQKPLLQAPFLPPKAPP [RHOBTB1] | 3.21 ± 0.17 | 3.37 ± 0.34 |  | 
24 | WLLLLTRGLVGVGEASYSTIAPTL [SPNS1] | 2.67 ± 0.44 | 2.83 ± 0.32 |  | 

Row | Sequence | protein stability index [1] | protein stability index [2] | protein stability index [3] | protein stability index [4]
25 | WNVLMWTSLFLGNGVLLCFYSQEW [SOAT1] | 2.99 ± 0.93 | 2.7 ± 0.38 |  | 
26 | WPPSFLSEFRALQFSLMLCAFVGA [SPNS1] | 3.23 ± 0.53 | 2.85 ± 0.64 |  | 
27 | WQLYYSKKLLDSWFTSTQEKKHK [JAGN1] |  |  | 2.28 ± 0.49 | 2.7 ± 0.29
28 | WRWTGFNFGFDLLVTYTNRYIIFK [GMCL1] | 2.63 ± 0.58 | 3.02 ± 0.45 |  | 
29 | WTALHFAAQNGDESSTRLLLEKNA [RIPK4] | 3.4 ± 0.08 | 3.28 ± 0.33 |  | 
30 | WVFHHYVSTFLSGVMLTWPDGLMY [TMEM120A] | 3.14 ± 0.17 | 3.11 ± 0.24 |  | 
31 | WYSRLQACQWGGNFLAFSVRRVS |  |  | 3.17 ± 0.58 | 2.15 ± 0.83
32 | YDIEVNTRRAQADLAYQLQVAKTK [FLOT1] | 4.35 ± 0.18 | 4.33 ± 0.19 |  | 
33 | YDPKTNQWSSDVAPTSTCRTSVGV [KLHL20] | 2.86 ± 0.44 | 3.04 ± 0.19 |  | 
34 | YEGGHIKGAVNLHMEEEVEDFLLK [CDC25A] | 4.6 ± 0.42 | 4.51 ± 0.076 |  | 
35 | YGRSWESYSSCGDFHYCDREHVCR [RBMY1A1] | 2.65 ± 0.72 | 2.66 ± 0.35 |  | 
36 | YISPELCEGKPYNQKSDIWALGCV [NEK8] | 2.19 ± 0.41 | 2.01 ± 0.19 |  | 
37 | YLRSKLCSLYENDCIFDKFECAWN [PPP2R2C] | 2.81 ± 0.57 | 2.61 ± 0.66 |  | 
38 | YNSEILEEAISVVMSGKMSVSKAQ [LCOR] | 2.96 ± 0.17 | 3.03 ± 0.41 |  | 
39 | YPCLEKPRIWSLAHTATASAVEGA [IRX6] | 2.8 ± 0.41 | 2.98 ± 0.49 |  | 
40 | YPTCGIGYPVSSAFAFQNTFPHSI [SASS6] | 2.66 ± 0.55 | 2.49 ± 0.41 |  | 
41 | YQELLGLSFEQMTDAHVWNKSVTL [NLN] | 2.37 ± 0.093 | 2.3 ± 0.28 |  | 
42 | YSLFVGLFLFGYKFSGLYILSFTV [SLC35F2] | 3.24 ± 0.39 | 3.07 ± 0.39 |  | 
43 | YSLRILIGDPPHHDHHDEFCLMP [BEX5] |  |  | 2.62 ± 0.4 | 2.03 ± 0.35
44 | YSNTDANILFYVVGLRNTLTRIRK [GLT8D2] | 2.3 ± 0.61 | 2.45 ± 0.3 |  | 
45 | YTGEIKISENLDYEETGFYEIEIQ [PCDHGA10] | 2.97 ± 0.18 | 2.87 ± 0.46 |  | 
46 | YTSELYPTVIRNVGLGTCSMFSRV [SLC22A15] | 2.13 ± 0.82 | 1.77 ± 0.12 |  | 
47 | YVDVVFANRPDPNTPMEETVRAMT [KCNAB2] | 2.66 ± 0.34 | 3.09 ± 0.7 |  | 
48 | YYTTPIYRFRMKCHLCVNYIEMQT [YJU2B] | 2.73 ± 0.43 | 2.51 ± 0.64 |  | 
